According to the supplement of paper PMC7877785:
± gives the uncertainty stated by the source.

Test: self-splicing fitness, log relative to wild type (ln ratio); higher = more splicing; Tetrahymena group I intron in knt gene, E. coli kanamycin selection, DiMSum; sequences stand for … in CUCUCU…GGAGGGAAAAGUUAUCAGGCAUGCACCUGGUAGCUAGUCUUUAAACCAAUAGAUUGCAUCGGUUUAAAAGGCAAGACCGUCAAAUUGCGGGAAAGGGGUCAACAGCCGUUCAGUACCAAGUCUCAGGGGAAACUUUGAGAUGGCCUUGCAAAGGGUAUGGUAAUAAGCUGACGGACAUGGUCCUAACCACGCAGCCAAGUCCUAAGUCAACAGAUCUUCUGUUGAUAUGGAUGCAGUUCACAGACUAAAUGUCGGUCGGGGAAGAUGUAUUCUUCUCAUAAGAUAUAGUCGGACCUCUCCUUAAUGGGAGCUAGCGGAUGAAGUGAUGCAACACUGGAGCCGCUGGGAACUAAUUUGUAUGCGAAAGUAUAUUGAUUAGUUUUGGAGUACUCGUGGUCG
Outline: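 Pooled colonies went to amplicon sequencing on an Illumina HiSeq 2500 after six replicate transformations. The plates were LB agar with 100 μg/mL carbenicillin, 50 μM IPTG and 0.2% rhamnose, with or without 25 μg/mL kanamycin, incubated overnight at 37°C or 30°C. The E. coli BL21(DE3) library had all eight P1ex-region intron nucleotides randomised, the intron placed in the knt kanamycin-resistance gene on pET-22b(+). DiMSum fitness is the error-weighted combination of replicate fold changes, kanamycin against none, normalised to wild type.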

Sequence | self-splicing fitness (ln) (30 °C) | self-splicing fitness (ln) (37 °C)
CGAAAGCAAUAUUACGUGGC | -0.949 ± 0.12 | -3.21 ± 0.32
CGACAGCAAUAUUACGAAGC | -2.91 ± 0.24 | -3.43 ± 0.35
CGACAGCAAUAUUACGACAG | -0.3 ± 0.069 | 0.0609 ± 0.084
CGACAGCAAUAUUACGAGAC | -4.34 ± 0.3 | -2.57 ± 0.26
CGACAGCAAUAUUACGAGAG | -3.42 ± 0.12 | -1.95 ± 0.11
CGACAGCAAUAUUACGAUCA | -0.455 ± 0.07 | 0.458 ± 0.096
CGACAGCAAUAUUACGCGGA | -2.18 ± 0.12 | -1.9 ± 0.089
CGACAGCAAUAUUACGCGGC | -3.55 ± 0.16 | -2.96 ± 0.26
CGACAGCAAUAUUACGCUGC | -3.02 ± 0.25 | -2.24 ± 0.26
CGACAGCAAUAUUACGGGUA | -4.49 ± 0.28 | -1.49 ± 0.12
CGACAGCAAUAUUACGGGUG | -0.537 ± 0.043 | 0.0253 ± 0.063
CGACAGCAAUAUUACGGUAC | -4.52 ± 0.36 | -2.09 ± 0.2
CGACAGCAAUAUUACGUGUG | -2.2 ± 0.067 | -1.1 ± 0.07
CGAGAGCAAUAUUACGAAAU | -2.81 ± 0.24 | -2.97 ± 0.37
CGAGAGCAAUAUUACGAGGC | -1.83 ± 0.24 | -0.565 ± 0.48
CGAGAGCAAUAUUACGAGUU | -3.56 ± 0.34 | -2.18 ± 0.34
CGAGAGCAAUAUUACGGAAU | -3.06 ± 0.19 | -3.23 ± 0.42
CGAGAGCAAUAUUACGGCAC | -3.72 ± 0.3 | -2.36 ± 0.23
CGAGAGCAAUAUUACGGGAC | -3.92 ± 0.18 | -1.87 ± 0.16
CGAGAGCAAUAUUACGGGCA | -3.47 ± 0.28 | -2.53 ± 0.44
CGAGAGCAAUAUUACGGGUA | -2.27 ± 0.31 | -2.23 ± 0.27

Sequence | self-splicing fitness (ln) (30 °C) | self-splicing fitness (ln) (37 °C)
CGAGAGCAAUAUUACGGUAG | -1.73 ± 0.23 | -1.65 ± 0.33
CGAGAGCAAUAUUACGGUGA | -3.9 ± 0.22 | -2.44 ± 0.2
CGAGAGCAAUAUUACGUCUU | -3.66 ± 0.43 | -1.39 ± 0.22
CGAGAGCAAUAUUACGUGAG | -1.51 ± 0.18 | -1.75 ± 0.48
CGAGAGCAAUAUUACGUGUC | -3.05 ± 0.14 | -2.17 ± 0.16
CGAUAGCAAUAUUACGAGAU | -4.01 ± 0.39 | -2.73 ± 0.25
CGAUAGCAAUAUUACGAUAU | -3.53 ± 0.16 | -1.47 ± 0.12
CGAUAGCAAUAUUACGCACG | -2.6 ± 0.36 | -1.91 ± 0.37
CGAUAGCAAUAUUACGCAUG | -1.79 ± 0.07 | -0.761 ± 0.069
CGAUAGCAAUAUUACGCCCC | -1.99 ± 0.29 | -0.838 ± 0.29
CGAUAGCAAUAUUACGCGAU | -3.09 ± 0.18 | -2.6 ± 0.29
CGAUAGCAAUAUUACGCGCG | -2.92 ± 0.15 | -1.59 ± 0.14
CGAUAGCAAUAUUACGCUAC | -2.95 ± 0.29 | 
CGAUAGCAAUAUUACGCUCA | -0.478 ± 0.11 | 0.119 ± 0.15
CGAUAGCAAUAUUACGGAAC | -2.5 ± 0.2 | -2.68 ± 0.25
CGAUAGCAAUAUUACGGCCG | -0.641 ± 0.087 | -0.184 ± 0.15
CGAUAGCAAUAUUACGGUAU | -2.78 ± 0.14 | -1.79 ± 0.17
CGAUAGCAAUAUUACGUAUA | -2.37 ± 0.15 | -3.14 ± 0.23
CGAUAGCAAUAUUACGUCAA | -3.18 ± 0.18 | -2.08 ± 0.15
CGAUAGCAAUAUUACGUCAU | -2.2 ± 0.15 | -2.02 ± 0.18
CGAUAGCAAUAUUACGUCCU | -1.29 ± 0.16 | -0.541 ± 0.19
